How the values were obtained:
[1] = biological target: CPXV ortholog of H3 (cowpox virus); assay: lysate ELISA
[2] = biological target: MPXV ortholog of H3 (monkeypox virus); assay: lysate ELISA
[3] = biological target: CPXV ortholog of H3 (cowpox virus); assay: cell-based or functional assay
[4] = biological target: MPXV ortholog of H3 (monkeypox virus); assay: cell-based or functional assay
[5] = biological target: MPXV ortholog of I1 (monkeypox virus); assay: lysate ELISA
[6] = biological target: VACV I1 protein (vaccinia virus); assay: lysate ELISA
[7] = biological target: CPXV ortholog of I1 (cowpox virus); assay: lysate ELISA
[8] = biological target: MPXV ortholog of I1 (monkeypox virus); assay: cell-based or functional assay

Binder | EC50 [1] [µg/mL] | EC50 [2] [µg/mL] | PRNT Emax, CPXV MV+C' [3] [%] | PRNT IC50, CPXV MV+C' [3] [µg/mL] | EC50 [5] [µg/mL] | EC50 [6] [µg/mL] | EC50 [7] [µg/mL] | other results
VACV-315 (antibody, V domains shown) VH: EVQLLESGGGLVQPGGSLKLSCAASGFIFSNYAMGWVRQAPGKGLEWVSALSASDGVTSYADSVKGRFTISRDNSKNTMYLQMNRLRTEDTAIYFCAKGRARVNNIYRYFDHWGQGTLVTVSS VL: QSVLTQPASVSGSPGQSITISCTGTSSDVGAYTFVSWYQHHPGKAPKLIIYEVSNRPSGVSDRFSGSKSGNTASLTISGLQAEDEADYYCNSYTTTSPWVFGGGTQLTVL | 0.002 | 0.001 | 70 | 2.8 |  |  |  | 
MPXV-79 (antibody, V domains shown) VH: QVQLVQSGAEVKKPGASVKVSCKASGYSFRSNGISWVRQAPGQGFEWLGWIAAYNGDTKYVQKFQGRLTMTTDTSTDTAYMELWSLRSDDTAVYYCARDPKLGRKGSAFDIWGQGTLVIVSS VL: EIVLTQSPATLSLSPGGRATLSCRASQSVGNYLTWYQQKPGQAPRLLIFDGSTRATGIPARFSGSGSGTDFTLTISSLEPEDFAVYYCLQRSDLYTFGQGTKVDIK | 0.004 | 0.003 | 81 | 0.2 |  |  |  | PRNT Emax, MPXV MV [4]: 67%; PRNT IC50, MPXV MV [4]: 12.5 µg/mL
VACV-314 (antibody, V domains shown) VH: QVQLVQSGPGLVKPSETLSLTCTVSGGSISSYYWSWIRQPPGKGLEYIGHIYYSGGTKYNPSLRSRVTISVDTSKNQFSLKLTSVTAADTAVYYCARLAGRKPDADSWGQGTLVTVSS VL: QPVLTQEPSLTVSPGGTVTLTCASSTGAVTSGFFPNWLQQKPGQAPRALIYSTNNKHSWTPARFSGSLLGGKAALTLSGVQPEDEAEYYCLLYYGGVVVFGGGTKLTVL | 0.004 | 0.003 | 85 | 0.7 |  |  |  | PRNT Emax, MPXV MV+C' [4]: 84%; PRNT IC50, MPXV MV+C' [4]: 0.8 µg/mL
MPXV-71 (antibody, V domains shown) V domain 1: EVQLVESGGGLVQPGESLKISCSASGFTFSDYAMHWVRQAPGQGLQYVSAISSNGHSTYYADSVKGRFTFSRDNSKNTLYLQMSSLRPEDTAVYYCVRCLLRGLISPFDYWGQGTLV V domain 2: QSVLTQPPSVSEAPRQRVTISCSGSSSNIGNNAVNWYQQLPGKAPKLLIYYDDLLPSGVSDRFSGSKSGTTASLTISGPPEDEADFYCSTWDYSLSARVFGGGTQVTVL |  |  |  |  | 0.006 | 0.022 | 0.014 | 
MPXV-31 (antibody, V domains shown) VH: QLQLQESGPGLVKPSETLSLTCTVSGGSISSRNFFWAWIRQPPGKGLEFIGSIFYSGGTYYNPSLKSRLSISVDTSRNQFSLRLSSVTAADTAVYYCARHMIVVLPGVPISTSFDPWGQGTL VL: DIVMTQSPDSLAVSLGERATINCKSSQSVLSNSNNKNYLAWYQQKPGQPPRLLIYWASARESGVPDRFSGSGSGTDFTLTIISLQPEDVAVYYCQQYYSPPAELSFGGGTKVDIK |  |  |  |  | 0.04 | 0.01 | 0.01 | 
MPXV-97 (antibody, V domains shown) VH: QVQLVQSGGGVVQPGRSLTLSCSASGFIFTRYGLHWVRQAPGKGLEWVAVISSDGTNRHYADSVKGRFTVSRDNSKSTLYVQMNSLRNEDTAVYYCARLSLEAAWYFDLWGRGTLVTVSS VL: QSVVTQPPSVSGAPGQRVTISCTGSSSNIGAGYDVHWYQHLPGTAPKVLIYGNTNRPSGVPDRFSGSKSGTSASLAITGLQAEDEADYYCQSYDNSLNGPWVFGTGTQ |  |  |  |  | 0.001 | 0.008 | > 50 | PRNT Emax, MPXV MV [8]: 96%; PRNT Emax, MPXV MV+C' [8]: 76%; PRNT IC50, MPXV MV [8]: 0.02 µg/mL; PRNT IC50, MPXV MV+C' [8]: 0.02 µg/mL

Source: US11667697
